Test results reported in patent US20040214230A1.

Assays:
[1] = biological target: monoclonal antibody GR-1Ca; experiment: competitive EIA: GALP varied against HRP-labeled [Cys^43] rat GALP (43-60); GR-1Ca solution of 80 ng/ml on anti-mouse immunoglobulin plate
[2] = biological target: monoclonal antibody GR-2Ca; experiment: competitive EIA: GALP varied against HRP-labeled [Cys^43] rat GALP (43-60); GR-2Ca solution of 80 ng/ml on anti-mouse immunoglobulin plate

Row | Binder | IC50 [1] [nM] | IC50 [2] [nM]
1 | rat GALP (peptide) peptide: APAHRGRGGWTLNSAGYLLGPVLHLSSKANQGRKTDSALEILDLWKAIDGLPYSRSPRMT | 3 | 10
2 | human GALP (peptide) peptide: APAHRGRGGWTLNSAGYLLGPVLHLPQMGDQDGKRETALEILDLWKAIDGLPYSHPPQPS | 7 | 20
3 | porcine GALP (peptide) peptide: APVHRGRGGWTLNSAGYLLGPVLHPPSRAEGGGKGKTALGILDLWKAIDGLPYPQSQLAS | 8 | 500
